Measurements as given in the supplement of paper PMC10567573.

B1: GNAI1 (parent)
chain: WIHCFEGVTAIIFCVALSDYDLVL

Variants of: B1
Experiment: protein stability index of a GFP-peptide fusion (GPS, HEK-293T) (PSI 1-6); higher = more stable
Conditions: c terminus: a fixed tail appended
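Note: lentivirally expressed fusions sorted by FACS into six bins by GFP to DsRed ratio, PSI derived from sequencing read proportions per bin multiplied by bin number.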

Variant | protein stability index
WIHCFEGVTAIIFCVALSDYDLVA | 1.85
WIHCFEGVTAIIFCVALSDYDLVE | 1.42
WIHCFEGVTAIIFCVALSDYDLVI | 3.87
WIHCFEGVTAIIFCVALSDYDLVD | 2.92
WIHCFEGVTAIIFCVALSDYDLVP | 2.78
WIHCFEGVTAIIFCVALSDYDLVK | 3.06
WIHCFEGVTAIIFCVALSDYDLVT | 3.34
WIHCFEGVTAIIFCVALSDYDLVM | 2.29
WIHCFEGVTAIIFCVALSDYDLVH | 3.37
WIHCFEGVTAIIFCVALSDYDLVN | 4.75
WIHCFEGVTAIIFCVALSDYDLVQ | 1.69
WIHCFEGVTAIIFCVALSDYDLVF | 2.34
WIHCFEGVTAIIFCVALSDYDLVG | 3.06
WIHCFEGVTAIIFCVALSDYDLVV | 2.12
WIHCFEGVTAIIFCVALSDYDLVR | 3.04
WIHCFEGVTAIIFCVALSDYTLVL | 4.09
WIHCFEGVTAIIFCVALSDYNLVL | 3.81
WIHCFEGVTAIIFCVALSDYSLVL | 2.76
WIHCFEGVTAIIFCVALSDYFLVL | 4.12
WIHCFEGVTAIIFCVALSDYILVL | 3.09
WIHCFEGVTAIIFCVALSDYKLVL | 3.74
WIHCFEGVTAIIFCVALSDYWLVL | 2.27
WIHCFEGVTAIIFCVALSDYCLVL | 3.01
WIHCFEGVTAIIFCVALSDYGLVL | 2.37

Variant | protein stability index
WIHCFEGVTAIIFCVALSDYRLVL | 2.59
WIHCFEGVTAIIFCVALSDYELVL | 4.04
WIHCFEGVTAIIFCVALSDYLLVL | 2.81
WIHCFEGVTAIIFCVALSDYMLVL | 2.88
WIHCFEGVTAIIFCVALSDYYLVL | 2.41
WIHCFEGVTAIIFCVALSDYALVL | 3.49
WIHCFEGVTAIITCVALSDYDLVL | 2.07
WIHCFEGVTAIISCVALSDYDLVL | 2.34
WIHCFEGVTAIIPCVALSDYDLVL | 2.43
WIHCFEGVTAIIKCVALSDYDLVL | 4.12
WIHCFEGVTAIIECVALSDYDLVL | 1.84
WIHCFEGVTAIIQCVALSDYDLVL | 3.46
WIHCFEGVTAIINCVALSDYDLVL | 2.17
WIHCFEGVTAIICCVALSDYDLVL | 2.64
WIHCFEGVTAIIGCVALSDYDLVL | 2.34
WIHCFEGVTAIIVCVALSDYDLVL | 2.83
WIHCFEGVTAIIICVALSDYDLVL | 4.07
WIHCFEGVTAIFFCVALSDYDLVL | 3.41
WIHCFEGVTAIYFCVALSDYDLVL | 3.14
WIHCFEGVTAITFCVALSDYDLVL | 1.79
WIHCFEGVTAIPFCVALSDYDLVL | 4.32
WIHCFEGVTAILFCVALSDYDLVL | 3.2
WIHCFEGVTAIWFCVALSDYDLVL | 2.95
WIHCFEGVTAIHFCVALSDYDLVL | 1.71

Variant | protein stability index
WIHCFEGVTAIEFCVALSDYDLVL | 4.44
WIHCFEGVTAISFCVALSDYDLVL | 2.84
WIHCFEGVTAIKFCVALSDYDLVL | 1.93
WIHCFEGVTAIQFCVALSDYDLVL | 1
WIHCFEGVTAIRFCVALSDYDLVL | 5.41
WIHCFEGVTAINFCVALSDYDLVL | 2.9
WIHCFEGVTAIIFCVALSVYDLVL | 3.39
WIHCFEGVTAIIFCVALSMYDLVL | 1.58
WIHCFEGVTAIIFCVALSYYDLVL | 3.06
WIHCFEGVTAIIFCVALSFYDLVL | 3.69
WIHCFEGVTAIIFCVALSSYDLVL | 2.77
WIHCFEGVTAIIFCVALSIYDLVL | 1.44
WIHCFEGVTAIIFCVALSQYDLVL | 2.96
WIHCFEGVTAIIFCVALSHYDLVL | 2.87
WIHCFEGVTAIIFCVALSCYDLVL | 3.67
WIHCFEGVTAIIFCVALSGYDLVL | 3.1
WIHCFEGVTAIIFCVALSPYDLVL | 3.43
WIHCFEGVTAIIFCVALSTYDLVL | 4.11
WIHCFEGVTAIIFCVALSLYDLVL | 2.58
WIHCFEGVTAIIFCVALSAYDLVL | 2.02
WIHCFEGVTAIIFCVALSEYDLVL | 3.67
WIHCFEGVTAIIFCVALSKYDLVL | 3.29
WIHCFEGVTAIIFSVALSDYDLVL | 3.26
WIHCFEGVTAIIFPVALSDYDLVL | 2.46

Variant | protein stability index
WIHCFEGVTAIIFHVALSDYDLVL | 2.66
WIHCFEGVTAIIFLVALSDYDLVL | 1.8
WIHCFEGVTAIIFTVALSDYDLVL | 4.02
WIHCFEGVTAIIFMVALSDYDLVL | 1.93
WIHCFEGVTAIIFRVALSDYDLVL | 4.07
WIHCFEGVTAIIFYVALSDYDLVL | 3.37
WIHCFEGVTAIIFDVALSDYDLVL | 4.12
WIHCFEGVTAIIFNVALSDYDLVL | 2.56
WIHCFEGVTAIIFAVALSDYDLVL | 1.32
WIHCFEGVTAIIFFVALSDYDLVL | 3.23
WIHCFEGVTAIIFGVALSDYDLVL | 2.52
WIHCFEGVTAIIFIVALSDYDLVL | 3.89
WIHCFEGVTAIIFQVALSDYDLVL | 2.43
WIHCFEGVTAIIFCVALSDYDHVL | 1.34
WIHCFEGVTAIIFCVALSDYDYVL | 2.52
WIHCFEGVTAIIFCVALSDYDPVL | 1.98
WIHCFEGVTAIIFCVALSDYDNVL | 1.85
WIHCFEGVTAIIFCVALSDYDWVL | 3.57
WIHCFEGVTAIIFCVALSDYDAVL | 1.82
WIHCFEGVTAIIFCVALSDYDCVL | 1.87
WIHCFEGVTAIIFCVALSDYDSVL | 3.61
WIHCFEGVTAIIFCVALSDYDMVL | 2.77
WIHCFEGVTAIIFCVALSDYDFVL | 2.5
WIHCFEGVTAIIFCVALSDYDKVL | 3.61

Variant | protein stability index
WIHCFEGVTAIIFCVALSDYDVVL | 4.39
WIHCFEGVTAIIFCVALSDYDQVL | 3.71
WIHCFEGVTAIIFCVALSDYDDVL | 3.04
WIHCFEGVTAIIFCVALLDYDLVL | 4.7
WIHCFEGVTAIIFCVALFDYDLVL | 1.9
WIHCFEGVTAIIFCVALNDYDLVL | 2.34
WIHCFEGVTAIIFCVALPDYDLVL | 2.3
WIHCFEGVTAIIFCVALIDYDLVL | 4.92
WIHCFEGVTAIIFCVALDDYDLVL | 2.67
WIHCFEGVTAIIFCVALVDYDLVL | 2.2
WIHCFEGVTAIIFCVALADYDLVL | 1.86
WIHCFEGVTAIIFCVALEDYDLVL | 4.41
WIHCFEGVTAIIFCVALTDYDLVL | 2.95
WIHCFEGVTAIIFCVALWDYDLVL | 2.62
WIHCFEGVTAIIFCVALQDYDLVL | 4.04
WIHCFEGVTAVIFCVALSDYDLVL | 3.49
WIHCFEGVTAHIFCVALSDYDLVL | 3.5
WIHCFEGVTAMIFCVALSDYDLVL | 3.01
WIHCFEGVTAKIFCVALSDYDLVL | 3.52
WIHCFEGVTATIFCVALSDYDLVL | 1.61
WIHCFEGVTANIFCVALSDYDLVL | 3.83
WIHCFEGVTASIFCVALSDYDLVL | 4.32
WIHCFEGVTAQIFCVALSDYDLVL | 1.86
WIHCFEGVTAPIFCVALSDYDLVL | 2.79

Variant | protein stability index
WIHCFEGVTAYIFCVALSDYDLVL | 3.17
WIHCFEGVTAFIFCVALSDYDLVL | 3.26
WIHCFEGVTAIIFCVALSDYDLYL | 3.15
WIHCFEGVTAIIFCVALSDYDLKL | 3.57
WIHCFEGVTAIIFCVALSDYDLSL | 2.21
WIHCFEGVTAIIFCVALSDYDLRL | 2.89
WIHCFEGVTAIIFCVALSDYDLCL | 1.55
WIHCFEGVTAIIFCVALSDYDLEL | 2.71
WIHCFEGVTAIIFCVALSDYDLTL | 3.6
WIHCFEGVTAIIFCVALSDYDLPL | 2.28
WIHCFEGVTAIIFCVALSDYDLNL | 3.29
WIHCFEGVTAIIFCVALSDYDLHL | 4
WIHCFEGVTAIIFCVALSDYDLIL | 2.7
WIHCFEGVTAIIFCVALSDYDLFL | 2.29
WIHCFEGVTAIIFCVALSDTDLVL | 4.04
WIHCFEGVTAIIFCVALSDQDLVL | 4.16
WIHCFEGVTAIIFCVALSDDDLVL | 3.02
WIHCFEGVTAIIFCVALSDLDLVL | 3.28
WIHCFEGVTAIIFCVALSDNDLVL | 3.6
WIHCFEGVTAIIFCVALSDRDLVL | 2.75
WIHCFEGVTAIIFCVALSDKDLVL | 2.02
WIHCFEGVTAIIFCVALSDFDLVL | 3.7
WIHCFEGVTAIIFCVALSDGDLVL | 2.45
WIHCFEGVTAIIFCVALSDVDLVL | 2.86

Variant | protein stability index
WIHCFEGVTAIIFCVALSDMDLVL | 1.56
WIHCFEGVTAIIFCVALSDSDLVL | 2.35
WIHCFEGVTAIIFCVALSDADLVL | 3
WIHCFEGVTAIIFCVALSDCDLVL | 2.61
WIHCFEGVTAIIFCVALSDEDLVL | 2.71
WIHCFEGVTAIIFCVALSDIDLVL | 3.91
WIHCFEGVTAIIFCVARSDYDLVL | 2.51
WIHCFEGVTAIIFCVAESDYDLVL | 3.42
WIHCFEGVTAIIFCVAVSDYDLVL | 3.19
WIHCFEGVTAIIFCVATSDYDLVL | 2.04
WIHCFEGVTAIIFCVAASDYDLVL | 3.93
WIHCFEGVTAIIFCVAHSDYDLVL | 2.71
WIHCFEGVTAIIFCVAPSDYDLVL | 3.56
WIHCFEGVTAIIFCVAQSDYDLVL | 3.55
WIHCFEGVTAIIFCVAWSDYDLVL | 3.09
WIHCFEGVTAIIFCVAYSDYDLVL | 2.83
WIHCFEGVTAIIFCVAKSDYDLVL | 2.55
WIHCFEGVTAIIFCVANSDYDLVL | 2.67
WIHCFEGVTAIIFCVAFSDYDLVL | 4.72
WIHCFEGVTAIIFCVADSDYDLVL | 3.5
WIHCFEGVTAIIFCVKLSDYDLVL | 4.07
WIHCFEGVTAIIFCVDLSDYDLVL | 2.96
WIHCFEGVTAIIFCVYLSDYDLVL | 4.61
WIHCFEGVTAIIFCVGLSDYDLVL | 3.14

Variant | protein stability index
WIHCFEGVTAIIFCVNLSDYDLVL | 2.25
WIHCFEGVTAIIFCVMLSDYDLVL | 2.41
WIHCFEGVTAIIFCVHLSDYDLVL | 1.78
WIHCFEGVTAIIFCVVLSDYDLVL | 1.64
WIHCFEGVTAIIFCVQLSDYDLVL | 2.56
WIHCFEGVTAIIFCVLLSDYDLVL | 3.16
WIHCFEGVTAIIFCVSLSDYDLVL | 3.92
WIHCFEGVTAIIFCVTLSDYDLVL | 3.18
WIHCFEGVTAIIFCYALSDYDLVL | 3.25
WIHCFEGVTAIIFCQALSDYDLVL | 3.42
WIHCFEGVTAIIFCCALSDYDLVL | 3.06
WIHCFEGVTAIIFCDALSDYDLVL | 2.61
WIHCFEGVTAIIFCKALSDYDLVL | 3.22
WIHCFEGVTAIIFCHALSDYDLVL | 3.01
WIHCFEGVTAIIFCMALSDYDLVL | 1.77
WIHCFEGVTAIIFCTALSDYDLVL | 2.03
WIHCFEGVTAIIFCPALSDYDLVL | 3.22
WIHCFEGVTAIIFCIALSDYDLVL | 3.06
WIHCFEGVTAIIFCFALSDYDLVL | 3.93
WIHCFEGVTAIIFCNALSDYDLVL | 3.17
